# Publication PMC13544220, “Glycemic and bodyweight effects of GIPR coding variation reflect differences in surface expression and intrinsic functional impairment” (Science Advances, 2026)
# B1: I378M (protein, UniProt P48546 22-466, looked up, variant I378M)
# Gastric inhibitory …: RAETGSKGQTAGELYQRWERYRRECQETLAAAEPPSGLACNGSFDMYVCWDYAAPNATARASCPWYLPWHHHVAAGFVLRQCGSDGQWGLWRDHTQCENPEKNEAFLDQRLILERLQVMYTVGYSLSLATLLLALLILSLFRRLHCTRNYIHINLFTSFMLRAAAILSRDRLLPRPGPYLGDQALALWNQALAACRTAQIVTQYCVGANYTWLLVEGVYLHSLLVLVGGSEEGHFRYYLLLGWGAPALFVIPWVIVRYLYENTQCWERNEVKAIWWIIRTPILMTILINFLIFIRILGILLSKLRTRQMRCRDYRLRLARSTLTLVPLLGVHEVVFAPVTEEQARGALRFAKLGFEMFLSSFQGFLVSVLYCFINKEVQSEIRRGWHHCRLRRSLGEEQRQLPERAFRALPSGSGPGEVPTSRGLSSGTLPGPGNEASRELESYC
# Experiments:
# Format in all cases: cell-based, human
# [1] = test system: wild-type and variant SNAP-GIPR; experiment: Surface SNAP-GIPR expression (SNAP-tag labelling) in AD293 cells; conditions: for AD293 Surface: Fig S3E, mean; for Surface SNAP-GIPR expression: sheet Fig 1C;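 on all read-outs here: scaled to the experimental average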
# Protocol: (§1) Twenty-four hours before the experiment, AD293 or INS-1 cells were reverse transfected with GIPR variant or wild-type plasmids using Lipofectamine 2000 in 96-well, clear-bottom, black microplates precoated with poly-D-lysine. All variants were tested in parallel on each occasion to control for transfection efficiency differences between experiments. Cells were then labeled using the cell-impermeant probe SNAP-Surface Alexa Fluor 647 (500 nM, New England Biolabs, USA) for 10 min at room temperature to label only surface GIPR. […] Several fields of view (FOVs) were acquired within each well using a 20X, 0.75–numerical aperture (NA) air objective. Surface GIPR fluorescence was quantified after flat-field correction using BaSiC ([72]) and segmenting using Phantast ([73]), which generates a mask based on the phase contrast images to demarcate cell versus noncell. Wide-field imaging of the surface-specific labeling achieved by SNAP-Surface probes means that surface expression can be established from whole-cell fluorescence, after subtracting nonspecific fluorescence from a separate well containing nontransfected cells processed in parallel from the same experiment. Data were normalized by dividing by the average specific signal across each experiment, or by the wild-type value, as indicated in the figure legends.
# [2] = test system: wild-type and variant SNAP-GIPR; experiment: Surface SNAP-GIPR expression (SNAP-tag labelling) in INS-1 cells; conditions: Fig 4G; Mean
# Protocol: as §1
# [3] = test system: wild-type and variant SNAP-GIPR; experiment: Single-concentration GIP cAMP response by HTRF in AD293 cells; conditions: Fig S3F, HTRF, mean;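 further: ratio to experiment-wide average response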
# Protocol: (§2) All variants were tested in parallel on each occasion to control for transfection efficiency differences between experiments.
# [4] = test system: wild-type and variant SNAP-GIPR; experiment: Single-concentration GIP cAMP response by HTRF in INS-1 cells; conditions: Fig S3E, mean
# Protocol: as §2
# [5] = test system: wild-type and variant SNAP-GIPR; experiment: cADDis cAMP imaging in AD293 cells, ensemble, expression-matched and per decile; conditions: Fig S3F, cADDis, mean
# Protocol: AD293 cells were reverse transfected with the GIPR variant or wild-type plasmids using Lipofectamine 2000 and cotransduced with the cADDis Green Up BacMam (10 μl per well, Montana Molecular, USA), in 96-well, poly-D-lysine–coated microplates. All variants were tested in parallel on each occasion to control for transfection efficiency differences between experiments. After 24 hours, cells were labeled using 500 nM SNAP-Surface Alexa Fluor 647 for 10 min at room temperature. Cells were washed three times and then imaged in KRBH buffer containing 6 mM glucose and 0.1% BSA. Imaging was performed at 37°C by wide-field microscopy using the same microscope as in the “Assessment of surface GIPR expression by SNAP-tag labeling in cell lines” section, with 9 FOVs for both cADDis and SNAP-Surface fluorescence acquired from each well using a 10X, 0.45 NA air objective. […] Flat-field correction was performed using BaSiC ([72]), drift correction was performed using SIFT, and a maximum intensity projection of the cADDis channel was used to segment individual cells. cAMP responses were determined by quantifying the cADDis fluorescence intensity for each cell at each time point. Nonviable cells or noncell objects were excluded according to criteria for allowable cell IBMX/FSK responses. […] The cADDis mask was then used to quantify the SNAP-Surface signal from each cell. Wild-type SNAP-Surface readings were split into deciles, and these deciles were subsequently used to categorize variant-transfected cells to match against the wild type. After trimming the top and bottom deciles, the mean was taken of each decile mean for surface expression level or cAMP response, which achieved matched expression levels by effectively applying an inverse weighting to counteract differences in cell number in each decile for different variants. Ensemble expression levels or cAMP responses were calculated without regard to deciles. Variant cADDis responses were also analyzed within their own surface expression deciles.
# [6] = test system: wild-type and variant SNAP-GIPR; experiment: Constitutive and agonist-mediated internalization, reversible SNAP-tag labelling, AD293 cells; design: key to Internalisation, Vehicle / Internalisation, +GIP / Internalisation, GIP-only: % internalization: residual fluorescence after Mesna vs pre-Mesna; Surface expression: unit not given here; conditions: Mean
# Protocol: (§3) Twenty-four hours before the experiment, AD293 or INS-1 cells were reverse transfected with GIPR variant or wild-type plasmids using Lipofectamine 2000 in 96-well, clear-bottom, black microplates precoated with poly-D-lysine. All variants were tested in parallel on each occasion to control for transfection efficiency differences between experiments. […] Media were then removed, cells washed with PBS and then placed in TNE buffer (pH 8.6) for imaging. […] After 10 min, the well was reimaged again to detect remaining fluorescence from internalized GIPR. Images were analyzed as in the “Assessment of surface GIPR expression by SNAP-tag labeling in cell lines” section, with the residual specific fluorescence after Mesna treatment expressed relative to the pre-Mesna value to establish percentage internalization.
# [7] = test system: wild-type and variant SNAP-GIPR; experiment: Constitutive and agonist-mediated internalization, reversible SNAP-tag labelling, INS-1 cells; design: key to Internalisation, GIP-only / Internalisation, Vehicle / Internalisation, +GIP: % internalization: residual fluorescence after Mesna vs pre-Mesna; conditions: Mean
# Protocol: as §3
molecule,measurement,setting,value
B1,AD293 Surface,"[1]; column repeated, paired with cAMP 100 nM",1.77
same,AD293 Surface,[1]; paired with cAMP 100 pM,1.77
same,Surface SNAP-GIPR expression,[1]; replicate 1,1.773
same,Surface SNAP-GIPR expression,[1]; replicate 2,1.115
same,Surface SNAP-GIPR expression,[1]; replicate 3,0.7558
same,Surface SNAP-GIPR expression,[1]; replicate 4,2.264
same,Surface SNAP-GIPR expression,[1]; replicate 5,2.029
same,Surface SNAP-GIPR expression,[1]; replicate 6,1.522
same,Surface SNAP-GIPR expression,[1]; replicate 7,1.263
same,Surface SNAP-GIPR expression,[1]; replicate 8,1.045
same,Surface SNAP-GIPR expression,[1]; replicate 9,1.7
same,Surface SNAP-GIPR expression,[1]; replicate 10,1.857
same,Surface SNAP-GIPR expression,[1]; replicate 11,1.523
same,Surface SNAP-GIPR expression,[1]; replicate 12,1.59
same,Surface SNAP-GIPR expression,[1]; replicate 13,1.942
same,Surface SNAP-GIPR expression,[1]; replicate 14,2.071
same,Surface SNAP-GIPR expression,[1]; replicate 15,1.739
same,Surface SNAP-GIPR expression,[1]; replicate 16,1.656
same,Surface SNAP-GIPR expression,[1]; replicate 17,1.757
same,Surface SNAP-GIPR expression,[1]; replicate 18,2.038
same,Surface SNAP-GIPR expression,[1]; replicate 19,1.806
same,Surface SNAP-GIPR expression,[1]; replicate 20,1.652
same,Surface SNAP-GIPR expression,[1]; replicate 21,1.678
same,Surface SNAP-GIPR expression,[1]; replicate 22,1.86
same,Surface SNAP-GIPR expression,[1]; replicate 23,1.91
same,Surface SNAP-GIPR expression,[1]; replicate 24,1.99
same,Surface SNAP-GIPR expression,[1]; replicate 25,1.721
same,Surface SNAP-GIPR expression,[1]; replicate 26,1.677
same,Surface SNAP-GIPR expression,[1]; replicate 27,2.102
same,Surface SNAP-GIPR expression,[1]; replicate 28,2.164
same,Surface SNAP-GIPR expression,[1]; replicate 29,2.007
same,Surface SNAP-GIPR expression,[1]; replicate 30,1.865
same,Surface SNAP-GIPR expression,[1]; replicate 31,1.878
same,Surface SNAP-GIPR expression,[1]; replicate 32,1.784
same,Surface SNAP-GIPR expression,[1]; replicate 33,1.822
same,Surface SNAP-GIPR expression,[1]; replicate 34,1.937
same,Surface SNAP-GIPR expression,[1]; replicate 35,1.581
same,Surface SNAP-GIPR expression,[1]; replicate 36,1.504
same,Surface SNAP-GIPR expression,[1]; replicate 37,2.229
same,Surface SNAP-GIPR expression,[1]; replicate 38,1.734
same,Surface SNAP-GIPR expression,[1]; replicate 39,2.181
same,Surface SNAP-GIPR expression,[1]; replicate 40,1.889
same,Surface SNAP-GIPR expression,[1]; replicate 41,1.94
same,Surface expression,[2],1.534
same,AD293 100 pM HTRF,"[3]; AD293, 100 pM",1.235
same,AD293 100 nM HTRF,"[3]; AD293, 100 nM",1.479
same,INS-1 cAMP (100 nM),[4],1.242
same,AD293 100 pM cADDis,"[5]; AD293, 100 pM",37.0191
same,AD293 100 nM cADDis,"[5]; AD293, 100 nM",39.23
same,+GIP internalisation (100 nM),"[6]; Fig 4E, GIP 100 nM",1.013
same,GIP-specific internalisation (100 nM),"[6]; Fig 4E, GIP 100 nM",0.2773
same,Constitutive internalisation (100 nM),[6]; Fig 4E,0.7358
same,Surface expression,[6]; Fig 4E,1.854
same,"Internalisation, +GIP","[6]; Fig S4C, AD293",54.7212
same,"Internalisation, GIP-only","[6]; Fig S4C, AD293",14.9417
same,"Internalisation, Vehicle","[6]; Fig S4C, AD293",39.7795
same,+GIP internalisation (100 nM),"[7]; Fig 4G, GIP 100 nM",0.6937
same,GIP-specific internalisation (100 nM),"[7]; Fig 4G, GIP 100 nM",0.1611
same,Constitutive internalisation (100 nM),[7]; Fig 4G,0.5325
same,"Internalisation, +GIP","[7]; Fig S4C, INS-1",45.8367
same,"Internalisation, GIP-only","[7]; Fig S4C, INS-1",10.74
same,"Internalisation, Vehicle","[7]; Fig S4C, INS-1",35.0967
